The labels stand for the following.
B1: hLK26-T155C-IgG4p-Tap18Hr1 (antibody, name in EU numbering)
heavy: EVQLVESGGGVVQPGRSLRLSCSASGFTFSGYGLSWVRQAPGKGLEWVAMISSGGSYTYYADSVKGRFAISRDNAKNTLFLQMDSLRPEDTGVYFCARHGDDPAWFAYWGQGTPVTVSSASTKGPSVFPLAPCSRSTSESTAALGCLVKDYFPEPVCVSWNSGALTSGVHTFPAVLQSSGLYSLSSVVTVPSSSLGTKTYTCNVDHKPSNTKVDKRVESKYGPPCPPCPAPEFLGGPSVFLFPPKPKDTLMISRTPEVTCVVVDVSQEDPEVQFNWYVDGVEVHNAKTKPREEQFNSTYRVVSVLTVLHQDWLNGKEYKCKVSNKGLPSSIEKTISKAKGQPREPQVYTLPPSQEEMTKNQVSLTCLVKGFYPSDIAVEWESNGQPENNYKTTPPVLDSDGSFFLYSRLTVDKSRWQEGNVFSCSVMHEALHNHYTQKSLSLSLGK
light: DIQLTQSPSSLSASVGDRVTITCSVSSSISSNNLHWYQQKPGKAPKPWIYGTSNLASGVPSRFSGSGSGTDYTFTISSLQPEDIATYYCQQWSSYPYMYTFGQGTKVEIKRTVAAPSVFIFPPSDEQLKSGTASVVCLLNNFYPREAKVQWKVDNALQSGNSQESVTEQDSKDSTYSLSSTLTLSKADYEKHKVYACEVTHQGLSSPVTKSFNRGEC
modifications: Tap18Hr1 linker-drug on the introduced Cys 155 (EU numbering)
notes: Site-specific ADC
B2: hLK26-L201C-IgG4p-Tap18Hr1 (antibody, name in EU numbering)
heavy: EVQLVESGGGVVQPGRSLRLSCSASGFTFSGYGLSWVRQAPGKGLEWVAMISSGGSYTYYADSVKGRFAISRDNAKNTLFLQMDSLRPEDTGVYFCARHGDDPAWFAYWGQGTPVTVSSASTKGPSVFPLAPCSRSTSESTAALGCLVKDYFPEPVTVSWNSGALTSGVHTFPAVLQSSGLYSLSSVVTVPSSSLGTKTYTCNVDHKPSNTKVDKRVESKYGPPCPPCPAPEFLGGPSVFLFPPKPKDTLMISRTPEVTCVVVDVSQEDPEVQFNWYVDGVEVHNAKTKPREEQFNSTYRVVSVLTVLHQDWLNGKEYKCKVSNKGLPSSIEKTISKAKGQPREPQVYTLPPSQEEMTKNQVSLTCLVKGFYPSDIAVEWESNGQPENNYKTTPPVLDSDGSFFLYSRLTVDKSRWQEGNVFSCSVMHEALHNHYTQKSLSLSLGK
light: B1 light with L204C
modifications: Tap18Hr1 linker-drug on the introduced Cys 201 (EU numbering)
notes: Site-specific ADC with kappa light chain mutant
B3: hLK26-S442C-IgG4p-Tap18Hr1 (antibody, name in EU numbering)
heavy: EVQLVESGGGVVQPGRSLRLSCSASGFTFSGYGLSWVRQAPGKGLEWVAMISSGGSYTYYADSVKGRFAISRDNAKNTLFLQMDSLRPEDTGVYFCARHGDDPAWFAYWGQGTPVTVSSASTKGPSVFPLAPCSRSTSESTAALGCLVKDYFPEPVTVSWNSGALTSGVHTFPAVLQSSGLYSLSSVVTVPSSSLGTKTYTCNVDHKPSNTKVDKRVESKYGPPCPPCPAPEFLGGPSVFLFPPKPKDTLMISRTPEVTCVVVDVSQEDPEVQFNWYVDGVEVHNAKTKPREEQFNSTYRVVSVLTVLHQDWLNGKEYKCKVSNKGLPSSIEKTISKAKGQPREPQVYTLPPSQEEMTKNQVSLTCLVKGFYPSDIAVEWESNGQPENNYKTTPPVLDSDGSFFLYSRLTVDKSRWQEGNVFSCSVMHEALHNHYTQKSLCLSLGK
light: B1 light
modifications: Tap18Hr1 linker-drug on the introduced Cys 442 (EU numbering)
notes: Site-specific ADC
B4: hLK26-S442C-IgG1-Tap18Hr1 (antibody, name in EU numbering)
heavy: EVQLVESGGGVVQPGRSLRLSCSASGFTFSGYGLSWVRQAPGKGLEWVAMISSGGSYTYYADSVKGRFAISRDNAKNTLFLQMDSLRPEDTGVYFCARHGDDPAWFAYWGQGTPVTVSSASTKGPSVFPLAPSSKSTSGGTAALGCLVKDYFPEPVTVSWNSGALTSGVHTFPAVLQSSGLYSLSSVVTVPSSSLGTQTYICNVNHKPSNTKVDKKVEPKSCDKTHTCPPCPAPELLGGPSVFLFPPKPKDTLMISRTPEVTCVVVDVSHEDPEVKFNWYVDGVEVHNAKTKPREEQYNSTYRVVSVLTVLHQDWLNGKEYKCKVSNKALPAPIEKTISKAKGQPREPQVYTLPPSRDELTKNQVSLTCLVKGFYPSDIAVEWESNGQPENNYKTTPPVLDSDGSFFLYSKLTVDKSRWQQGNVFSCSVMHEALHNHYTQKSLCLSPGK
light: B1 light
modifications: Tap18Hr1 linker-drug on the introduced Cys 442 (EU numbering)
notes: Site-specific ADC
B5: hLK26-T155C-IgG1-Tap18Hr1 (antibody, name in EU numbering)
heavy: not shown
light: B1 light
modifications: Tap18Hr1 linker-drug on the introduced Cys 155 (EU numbering)
notes: Site-specific ADC
B6: hLK26-T199C-IgG4p-Tap18Hr1 (antibody, name in EU numbering)
heavy: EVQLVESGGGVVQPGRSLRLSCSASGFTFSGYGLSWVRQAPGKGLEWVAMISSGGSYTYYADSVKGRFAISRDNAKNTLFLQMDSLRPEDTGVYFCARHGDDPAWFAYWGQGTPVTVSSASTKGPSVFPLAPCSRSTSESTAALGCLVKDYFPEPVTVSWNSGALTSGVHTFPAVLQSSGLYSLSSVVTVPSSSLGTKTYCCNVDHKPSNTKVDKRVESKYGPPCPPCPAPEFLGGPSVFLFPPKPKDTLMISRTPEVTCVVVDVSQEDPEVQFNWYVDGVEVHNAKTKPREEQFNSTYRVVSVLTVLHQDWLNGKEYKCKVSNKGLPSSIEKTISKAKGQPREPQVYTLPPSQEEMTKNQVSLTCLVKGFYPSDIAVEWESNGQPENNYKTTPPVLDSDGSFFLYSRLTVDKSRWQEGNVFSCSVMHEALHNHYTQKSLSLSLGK
light: B1 light
modifications: Tap18Hr1 linker-drug on the introduced Cys 199 (EU numbering)
notes: Site-specific ADC
B7: hLK26-T206C-IgG1-Tap18Hr1 (antibody, name in EU numbering)
heavy: not shown
light: B1 light with T209C
modifications: Tap18Hr1 linker-drug on the introduced Cys 206 (EU numbering)
notes: as for B2
B8: hLK26-IgG1 (antibody)
heavy: not shown
light: B1 light
notes: Humanized anti-FRA antibody, human IgG1 / kappa, unconjugated; also called naked Ab hLK26-IgG1; unconjugated hLK26-IgG1

These results are taken from patent US20160015827A1 (BIOALLIANCE C V, published 2016).

Substitutions are numbered along the chain they refer to. Numbers in names are those of the source.

The target of the first assay is T1, human folate receptor alpha (FRA) (human, UniProt P15328 25-234).
T1 construct: In the assays FRA is the endogenous protein on FRA-expressing human cancer cell lines (SK-OV-3, OVCAR-3, OVCAR-3B, NCI-H2110, NCI-H292); also called human FRA
T1 sequence (P15328 25-234 limits assumed): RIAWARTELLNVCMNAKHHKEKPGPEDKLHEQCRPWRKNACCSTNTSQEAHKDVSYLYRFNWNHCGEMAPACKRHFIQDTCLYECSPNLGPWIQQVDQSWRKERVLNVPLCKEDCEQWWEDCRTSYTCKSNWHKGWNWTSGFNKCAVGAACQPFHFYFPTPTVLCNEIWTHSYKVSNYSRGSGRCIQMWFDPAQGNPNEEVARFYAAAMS
Kind of assay: flow cytometry on SK-OV-3 cells, 1.1 µg/mL. As for the experimental part:
(§1) 1×10⁵ cells were seeded per well in a v-bottomed 96-well plate and incubated with 50 μl of the unconjugated Abs or the ADCs at titrated concentrations or isotype control antibody human IgG at 10 μg/mL. After 60 minutes of incubation at 4° C., cells were washed once with 200 μl FACS buffer (1×PBS containing 1% FBS), stained with 50 μl of 1 μg/ml goat F(ab′)2-anti-human IgG (H+L)-RPE or goat anti-human IgG-RPE (SOUTHERN BIOTECH®, Cat. No. 2043-09 or 2040-09) in FACS buffer and then incubated at 4° C. for 30 min Cells were washed once with FACS buffer and analyzed by flow cytometer (BD LSR, BD Life Sciences).
(§2) The binding activities of site-specific conjugates of hLK26-Cys variants-Tap18Hr1 were evaluated by flow cytometric analysis in ovarian cancer SK-OV-3 and OVCAR-3B (Table 9-10) and lung cancer NCI-H2110 and NCI-H292 (Table 11-12) cells. The Mean fluorescence intensity (MFI) values in the tables represent binding activity of ADCs at tested concentration. […] The IgG4p variants-Tap18Hr1 conjugates also bind to all the FRA positive cancer cells tested here, but the fluorescent intensities were generally lower than those observed with IgG1 variants. This decrease in binding activity is likely attributed to IgG4 isotype rather than cysteine mutation. Overall, the site-specific conjugated hLK26-Cys variants retain antigen reactivity to the ovarian and lung cancer cells tested.
In general terms: Flow cytometry measures light scatter and fluorescence of single cells or particles in a stream.
For the molecule B1, the MFI is 1890 MFI.
Take B2: the MFI was found to be 1000 MFI.
In the case of B3, the MFI was 1880 MFI.
The molecule B4 returned an MFI of 2080 MFI.
Molecule B5 had an MFI of 2470 MFI.
In the case of B6, the MFI was determined as 966 MFI.
Still for that read-out and setting: next, B7: 1270 MFI.

The target in a further assay is T1, human folate receptor alpha (FRA). Description: flow cytometry on OVCAR-3B cells, 1.1 µg/mL. As for the experimental part: as §1, §2
With B1, the MFI came to 806 MFI.
On to B8, for which the MFI turned out to be 1150 MFI.
For B3, the MFI worked out at 769 MFI.
With B4, the MFI came to 967 MFI.
Take B5: the MFI stood at 1060 MFI.

A further assay has the same target. Description: flow cytometry on NCI-H2110 cells, 3.3 µg/mL. As for the experimental part:
as §1, §2
For the molecule B1, the MFI was determined as 494 MFI.
Molecule B2 registered an MFI of 890 MFI.
Still for that read-out and setting: next, B3: 479 MFI.
For B4, the MFI is 605 MFI.
With B5, the MFI was 649 MFI.
For the molecule B6, the MFI turned out to be 898 MFI.
B7 had an MFI of 1180 MFI.

For the next assay the target is unchanged. Kind of assay: flow cytometry on NCI-H292 cells, 3.3 µg/mL. As for the experimental part:
as §1, §2
Regarding B1, the MFI worked out at 1180 MFI.
B8: the MFI was found to be 1460 MFI.
Molecule B3 had an MFI of 1090 MFI.
B4 returned an MFI of 1280 MFI.
Molecule B5 came in with an MFI of 1450 MFI.
